Reference: US20220119534A1 (DRAGONFLY THERAPEUTICS, published 2022)

What was measured:
[1] = target: T1, Human CLEC12A-His (recombinant, K244 WT) (human, UniProt Q5QGZ9 65-265); assay: SPR, untreated CLEC12A, two-state fit (kd1)
T1 construct: Made in house (Dragonfly Tx); also called hCLEC12A; hCLEC12A-His; not shown: His tag
T1 sequence: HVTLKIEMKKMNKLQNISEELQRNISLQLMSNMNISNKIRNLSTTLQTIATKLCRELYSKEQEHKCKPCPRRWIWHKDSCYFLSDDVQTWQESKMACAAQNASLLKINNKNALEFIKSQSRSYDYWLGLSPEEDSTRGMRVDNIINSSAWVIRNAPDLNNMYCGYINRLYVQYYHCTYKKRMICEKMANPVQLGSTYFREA

[2] = target: T1, Human CLEC12A-His (recombinant, K244 WT); assay: SPR, two-state fit (ka1); control sample
Description: Briefly, human Fc specific antibodies were covalently immobilized at a density ˜8000-10000 resonance units (RU) on carboxy methyl dextran matrix of a CM5 biosensor chip via amine-coupling chemistry to create an anti-hFc IgG chip. […] Association was monitored for 300 seconds and dissociation was monitored for 600 seconds. Surfaces were regenerated between cycles with three pulses of 10 mM glycine-HCl, pH 1.7 injected for 20 seconds at 100 μl/min. HBS-EP+ (1×) with 0.1 mg/ml BSA was used as running buffer throughout the experiment. Experiments were performed at physiological temperature of 37° C. To obtain kinetic rate constants and overall binding affinity, double-referenced data were fit to a two-state kinetic model using Biacore 8K Insight Evaluation software (Cytiva).

koff [1]: 0.0398 s⁻¹
kon [2]: 8.87e+06 M⁻¹ s⁻¹
B1: AB0089 TriNKET (bispecific antibody, human IgG1, kappa)
chain: QLQLQESGPGLVKPSETLSLTCTVSGFSLTNYGLHWIRQPPGKCLEWIGVIWVGGATDYNPSLKSRVTISVDTSKNQFSLKLSSVQAADTAVYYCAKGDYGDTLDYWGQGTLVTVSSGGGGSGGGGSGGGGSGGGGSDIQMTQSPSSLSASVGDRVTITCHASQNINFWLSWYQQKPGKAPKLLIYEASNLHTGVPSRFSGSGSGTDFTLTISSLQPEDFATYYCQQSHSYPLTFGCGTKLEIKGSDKTHTCPPCPAPELLGGPSVFLFPPKPKDTLMISRTPEVTCVVVDVSHEDPEVKFNWYVDGVEVHNAKTKPREEQYNSTYRVVSVLTVLHQDWLNGKEYKCKVSNKALPAPIEKTISKAKGQPREPRVYTLPPCRDELTKNQVSLTCLVKGFYPSDIAVEWESNGQPENNYKTTPPVLVSDGSFTLYSKLTVDKSRWQQGNVFSCSVMHEALHNHYTQKSLSLSPG
heavy: EVQLVESGGGLVKPGGSLRLSCAASGFTFSSYSMNWVRQAPGKGLEWVSSISSSSSYIYYADSVKGRFTISRDNAKNSLYLQMNSLRAEDTAVYYCARGAPIGAAAGWFDPWGQGTLVTVSSASTKGPSVFPLAPSSKSTSGGTAALGCLVKDYFPEPVTVSWNSGALTSGVHTFPAVLQSSGLYSLSSVVTVPSSSLGTQTYICNVNHKPSNTKVDKKVEPKSCDKTHTCPPCPAPELLGGPSVFLFPPKPKDTLMISRTPEVTCVVVDVSHEDPEVKFNWYVDGVEVHNAKTKPREEQYNSTYRVVSVLTVLHQDWLNGKEYKCKVSNKALPAPIEKTISKAKGQPREPQVCTLPPSRDELTENQVSLTCLVKGFYPSDIAVEWESNGQPENNYKTTPPVLDSDGSFFLYSWLTVDKSRWQQGNVFSCSVMHEALHNHYTQKSLSLSPG
light: DIQMTQSPSSVSASVGDRVTITCRASQGISSWLAWYQQKPGKAPKLLIYAASSLQSGVPSRFSGSGSGTDFTLTISSLQPEDFATYYCQQGVSFPRTFGGGTKVEIKRTVAAPSVFIFPPSDEQLKSGTASVVCLLNNFYPREAKVQWKVDNALQSGNSQESVTEQDSKDSTYSLSSTLTLSKADYEKHKVYACEVTHQGLSSPVTKSFNRGEC
notes: F3' format heterodimer of three chains; human IgG1 Fc with EW-RVT and Y349C/S354C mutations; also called AB0089 Lot AB0089-002; CLEC12A TriNKET AB0089
